The record followed here is the supplement of paper PMC7877785.

The nature of the data set: self-splicing fitness, log relative to wild type (ln ratio); higher = more splicing; Tetrahymena group I intron in knt gene, E. coli kanamycin selection, DiMSum; sequences stand for … in CUCUCU…GGAGGGAAAAGUUAUCAGGCAUGCACCUGGUAGCUAGUCUUUAAACCAAUAGAUUGCAUCGGUUUAAAAGGCAAGACCGUCAAAUUGCGGGAAAGGGGUCAACAGCCGUUCAGUACCAAGUCUCAGGGGAAACUUUGAGAUGGCCUUGCAAAGGGUAUGGUAAUAAGCUGACGGACAUGGUCCUAACCACGCAGCCAAGUCCUAAGUCAACAGAUCUUCUGUUGAUAUGGAUGCAGUUCACAGACUAAAUGUCGGUCGGGGAAGAUGUAUUCUUCUCAUAAGAUAUAGUCGGACCUCUCCUUAAUGGGAGCUAGCGGAUGAAGUGAUGCAACACUGGAGCCGCUGGGAACUAAUUUGUAUGCGAAAGUAUAUUGAUUAGUUUUGGAGUACUCGUGGUCG
In a few lines: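 Library with all eight P1ex-region intron nucleotides randomised, intron inside the knt kanamycin-resistance gene on pET-22b(+), in E. coli BL21(DE3). Cells grew overnight at 37°C or 30°C on LB agar with or without 25 μg/mL kanamycin (plus 100 μg/mL carbenicillin, 50 μM IPTG, 0.2% rhamnose), in six replicate transformations. Pooled colonies were amplicon-sequenced on Illumina HiSeq 2500. DiMSum fitness is the error-weighted combination of wild-type-normalised replicate fold changes, kanamycin versus none.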

± gives the uncertainty stated by the source.

UAGCAGCAAUAUUACGGUAU: the “self-splicing fitness (ln)” value (30 °C) was -2.97 ± 0.092 and the “self-splicing fitness (ln)” value (37 °C) was -2.41 ± 0.094. With UAGCAGCAAUAUUACGGUCG, the “self-splicing fitness (ln)” value came to 0.0447 ± 0.066 (30 °C) and 0.482 ± 0.094 (37 °C). On to UAGCAGCAAUAUUACGGUCU, for which the “self-splicing fitness (ln)” value is -1.22 ± 0.074 (30 °C) and -1.24 ± 0.086 (37 °C).

As for UAGCAGCAAUAUUACGGUUU, the “self-splicing fitness (ln)” value reads like this: (30 °C) -0.986 ± 0.051; (37 °C) -0.354 ± 0.067. On the same counts, the results for UAGCAGCAAUAUUACGUAAG are -1.91 ± 0.078 and -0.435 ± 0.091. The corresponding values for UAGCAGCAAUAUUACGUAGA are -2.62 ± 0.072 and -1.11 ± 0.079. With UAGCAGCAAUAUUACGUGCU, the “self-splicing fitness (ln)” value was -1.12 ± 0.12 (30 °C) and -1.9 ± 0.16 (37 °C). On the same counts, the results for UAGCAGCAAUAUUACGUUCU are -1.45 ± 0.1 and -0.606 ± 0.12. On the same counts, the results for UAGCAGCAAUAUUACGUUGG are -2.36 ± 0.089 and -2.22 ± 0.12. UAGGAGCAAUAUUACGAAUG: the “self-splicing fitness (ln)” value (30 °C) was -1.64 ± 0.4 and the “self-splicing fitness (ln)” value (37 °C) is -0.141 ± 0.49. UAGGAGCAAUAUUACGACAG: the “self-splicing fitness (ln)” value (30 °C) is -2.19 ± 0.33. For the sequence UAGGAGCAAUAUUACGACCG, the “self-splicing fitness (ln)” value (30 °C) was found to be 0.0998 ± 0.18 and the “self-splicing fitness (ln)” value (37 °C) was -0.0128 ± 0.23. For UAGGAGCAAUAUUACGAGCA, the “self-splicing fitness (ln)” value runs as follows: (30 °C) -2.38 ± 0.17; (37 °C) -1.58 ± 0.15. The corresponding values for UAGGAGCAAUAUUACGAUCA are -1.02 ± 0.2 and -0.542 ± 0.28.

Consider UAGGAGCAAUAUUACGCAAG, for which, under “37 °C”, the “self-splicing fitness (ln)” value is -0.879 ± 0.22. Same read-out and setting: next, UAGGAGCAAUAUUACGCAGU: -1.96 ± 0.28.

Regarding UAGGAGCAAUAUUACGCGCG, the “self-splicing fitness (ln)” value is, setting by setting: (30 °C) -0.62 ± 0.11; (37 °C) -1.29 ± 0.14.

Consider UAGGAGCAAUAUUACGGAAC, for which, for the setting “37 °C”, the “self-splicing fitness (ln)” value was -0.574 ± 0.4. For the sequence UAGGAGCAAUAUUACGGACA, the “self-splicing fitness (ln)” value (30 °C) is -3.74 ± 0.4 and the “self-splicing fitness (ln)” value (37 °C) was -0.442 ± 0.18. As to UAGGAGCAAUAUUACGGCUC, where the note is “30 °C”, the “self-splicing fitness (ln)” value was -2.64 ± 0.24. UAGGAGCAAUAUUACGGGCG: the “self-splicing fitness (ln)” value (30 °C) was -2.73 ± 0.19 and the “self-splicing fitness (ln)” value (37 °C) is -2.58 ± 0.23.

Regarding UAGGAGCAAUAUUACGGGCU, the “self-splicing fitness (ln)” value runs as follows: (30 °C) -3.12 ± 0.48; (37 °C) -1.64 ± 0.4. The corresponding values for UAGGAGCAAUAUUACGGUAG are -3.52 ± 0.17 and -1.56 ± 0.13. For UAGGAGCAAUAUUACGUACC, the “self-splicing fitness (ln)” value is -2.66 ± 0.32 (30 °C) and -2.69 ± 0.43 (37 °C). Take UAGGAGCAAUAUUACGUAUC: the “self-splicing fitness (ln)” value (30 °C) was -1.71 ± 0.2.

UAGGAGCAAUAUUACGUCGU: the “self-splicing fitness (ln)” value is -1.72 ± 0.28 (30 °C) and -1.86 ± 0.35 (37 °C). The corresponding values for UAGGAGCAAUAUUACGUGCA are -1.88 ± 0.17 and -1.41 ± 0.19. Regarding UAGGAGCAAUAUUACGUUUG, the “self-splicing fitness (ln)” value is -3.19 ± 0.2 (30 °C) and -1.25 ± 0.22 (37 °C). The corresponding values for UAGUAGCAAUAUUACGACAU are -2.049 ± 0.018 and -0.934 ± 0.034. Turning to UAGUAGCAAUAUUACGAGCU, the “self-splicing fitness (ln)” value (37 °C) was -0.383 ± 0.21. On to UAGUAGCAAUAUUACGAGGA, for which, where the note is “37 °C”, the “self-splicing fitness (ln)” value was -1.81 ± 0.46.

In the case of UAGUAGCAAUAUUACGAGUU, the “self-splicing fitness (ln)” value (30 °C) was -3.96 ± 0.28 and the “self-splicing fitness (ln)” value (37 °C) was -2.75 ± 0.23. The corresponding values for UAGUAGCAAUAUUACGCAUG are -1.58 ± 0.092 and -0.443 ± 0.095. The corresponding values for UAGUAGCAAUAUUACGCCAA are -3.28 ± 0.29 and -2.02 ± 0.24. As to UAGUAGCAAUAUUACGCGAA, the “self-splicing fitness (ln)” value (37 °C) is -2.45 ± 0.41. As to UAGUAGCAAUAUUACGCUAG, the “self-splicing fitness (ln)” value was -1.09 ± 0.23 (30 °C) and 0.812 ± 0.24 (37 °C).

On to UAGUAGCAAUAUUACGGAAG, for which, where the note is “37 °C”, the “self-splicing fitness (ln)” value was -1.83 ± 0.23. With UAGUAGCAAUAUUACGGAUC, the “self-splicing fitness (ln)” value runs as follows: (30 °C) -2.87 ± 0.11; (37 °C) -0.854 ± 0.079. The corresponding values for UAGUAGCAAUAUUACGGGAC are -4.2 ± 0.42 and -2.27 ± 0.43. As to UAGUAGCAAUAUUACGGGAU, the “self-splicing fitness (ln)” value was -3.3 ± 0.23 (30 °C) and -1.97 ± 0.18 (37 °C). Take UAGUAGCAAUAUUACGGGGC: the “self-splicing fitness (ln)” value runs as follows: (30 °C) -3.84 ± 0.39; (37 °C) -2.68 ± 0.27. The corresponding values for UAGUAGCAAUAUUACGGGGG are -4.33 ± 0.46 and -2.8 ± 0.36. The corresponding values for UAGUAGCAAUAUUACGGUAU are -2.55 ± 0.24 and -2.39 ± 0.35.

Turning to UAGUAGCAAUAUUACGGUCU, the “self-splicing fitness (ln)” value runs as follows: (30 °C) -1.79 ± 0.17; (37 °C) -0.706 ± 0.13. On the same counts, the results for UAGUAGCAAUAUUACGGUUA are -0.28 ± 0.077 and 0.03 ± 0.091. As for UAGUAGCAAUAUUACGUAUU, the “self-splicing fitness (ln)” value is, setting by setting: (30 °C) -4.59 ± 0.36; (37 °C) -1.96 ± 0.2.

With UAGUAGCAAUAUUACGUCAG, where the note is “37 °C”, the “self-splicing fitness (ln)” value was -0.99 ± 0.22. With UAGUAGCAAUAUUACGUCGA, the “self-splicing fitness (ln)” value (30 °C) was -1.6 ± 0.17 and the “self-splicing fitness (ln)” value (37 °C) was -1.24 ± 0.16. Consider UAGUAGCAAUAUUACGUGAA, for which the “self-splicing fitness (ln)” value (30 °C) was -3.8 ± 0.35 and the “self-splicing fitness (ln)” value (37 °C) is -1.07 ± 0.18. On to UAGUAGCAAUAUUACGUGAG, for which the “self-splicing fitness (ln)” value (30 °C) was -1.3 ± 0.074 and the “self-splicing fitness (ln)” value (37 °C) was -1.87 ± 0.12.

Take UAGUAGCAAUAUUACGUUCU: the “self-splicing fitness (ln)” value runs as follows: (30 °C) -1.88 ± 0.12; (37 °C) -0.844 ± 0.098.

As for UAGUAGCAAUAUUACGUUUA, the “self-splicing fitness (ln)” value (30 °C) was -1.48 ± 0.16 and the “self-splicing fitness (ln)” value (37 °C) is -1.22 ± 0.14. The corresponding values for UAUAAGCAAUAUUACGACAA are 0.0108 ± 0.14 and -0.202 ± 0.17. For UAUAAGCAAUAUUACGACGA, the “self-splicing fitness (ln)” value runs as follows: (30 °C) -0.51 ± 0.14; (37 °C) -1.36 ± 0.15. On the same counts, the results for UAUAAGCAAUAUUACGACGU are -1.12 ± 0.11 and -0.116 ± 0.11.

As for UAUAAGCAAUAUUACGAUAU, the “self-splicing fitness (ln)” value was -2.9 ± 0.21 (30 °C) and -1.96 ± 0.2 (37 °C). As for UAUAAGCAAUAUUACGAUCG, the “self-splicing fitness (ln)” value (30 °C) was -0.0932 ± 0.12 and the “self-splicing fitness (ln)” value (37 °C) is -0.23 ± 0.13. For UAUAAGCAAUAUUACGCAGC, the “self-splicing fitness (ln)” value reads like this: (30 °C) -2.5 ± 0.23; (37 °C) -2.43 ± 0.3. On the same counts, the results for UAUAAGCAAUAUUACGCGCA are -0.204 ± 0.11 and 0.304 ± 0.14. With UAUAAGCAAUAUUACGCGUA, the “self-splicing fitness (ln)” value is, setting by setting: (30 °C) -1.84 ± 0.2; (37 °C) -0.627 ± 0.17. In the case of UAUAAGCAAUAUUACGCUCA, the “self-splicing fitness (ln)” value is -0.3 ± 0.14 (30 °C) and 0.688 ± 0.21 (37 °C). On the same counts, the results for UAUAAGCAAUAUUACGCUUU are -4.08 ± 0.35 and -2.77 ± 0.3. Turning to UAUAAGCAAUAUUACGGAUU, the “self-splicing fitness (ln)” value runs as follows: (30 °C) -3.03 ± 0.21; (37 °C) -1.51 ± 0.19.

Consider UAUAAGCAAUAUUACGGGGG, for which the “self-splicing fitness (ln)” value is -3.88 ± 0.29 (30 °C) and -3.09 ± 0.24 (37 °C). The corresponding values for UAUAAGCAAUAUUACGGUAA are -2.02 ± 0.2 and -0.715 ± 0.14. The corresponding values for UAUAAGCAAUAUUACGGUCU are -1.22 ± 0.13 and -1.05 ± 0.17.

For UAUAAGCAAUAUUACGUAAU, the “self-splicing fitness (ln)” value by setting is: (30 °C) -3.56 ± 0.37; (37 °C) -0.822 ± 0.19.

In the case of UAUAAGCAAUAUUACGUACU, the “self-splicing fitness (ln)” value runs as follows: (30 °C) -1.69 ± 0.16; (37 °C) -0.993 ± 0.11. Take UAUAAGCAAUAUUACGUAGA: the “self-splicing fitness (ln)” value (30 °C) is -1.89 ± 0.11 and the “self-splicing fitness (ln)” value (37 °C) was -0.959 ± 0.13. Turning to UAUAAGCAAUAUUACGUCAG, the “self-splicing fitness (ln)” value runs as follows: (30 °C) -1.22 ± 0.11; (37 °C) -0.547 ± 0.17. Take UAUAAGCAAUAUUACGUCAU: the “self-splicing fitness (ln)” value was -3.37 ± 0.22 (30 °C) and -0.173 ± 0.15 (37 °C). In the case of UAUAAGCAAUAUUACGUGAC, the “self-splicing fitness (ln)” value runs as follows: (30 °C) -2.15 ± 0.19; (37 °C) -0.695 ± 0.3. On the same counts, the results for UAUAAGCAAUAUUACGUGAU are -1.89 ± 0.13 and -1.45 ± 0.17. On the same counts, the results for UAUAAGCAAUAUUACGUGGU are -3.76 ± 0.29 and -2.53 ± 0.21.

For UAUAAGCAAUAUUACGUUGG, the “self-splicing fitness (ln)” value (30 °C) was -2.78 ± 0.13 and the “self-splicing fitness (ln)” value (37 °C) was -2.23 ± 0.17.

On to UAUCAGCAAUAUUACGACCU, for which the “self-splicing fitness (ln)” value (30 °C) was -0.529 ± 0.071 and the “self-splicing fitness (ln)” value (37 °C) stood at 0.112 ± 0.1.

With UAUCAGCAAUAUUACGACGC, the “self-splicing fitness (ln)” value (30 °C) is -2.09 ± 0.13 and the “self-splicing fitness (ln)” value (37 °C) is -0.508 ± 0.13. For the sequence UAUCAGCAAUAUUACGCAGG, the “self-splicing fitness (ln)” value runs as follows: (30 °C) -1.01 ± 0.055; (37 °C) 0.028 ± 0.07.
